{
  "source": "paper PMC10975748",
  "about": "(2024)",
  "molecular_target": "Kv1.2 (Homo sapiens, UniProt P16389)",
  "sequence (P16389 whole entry)": "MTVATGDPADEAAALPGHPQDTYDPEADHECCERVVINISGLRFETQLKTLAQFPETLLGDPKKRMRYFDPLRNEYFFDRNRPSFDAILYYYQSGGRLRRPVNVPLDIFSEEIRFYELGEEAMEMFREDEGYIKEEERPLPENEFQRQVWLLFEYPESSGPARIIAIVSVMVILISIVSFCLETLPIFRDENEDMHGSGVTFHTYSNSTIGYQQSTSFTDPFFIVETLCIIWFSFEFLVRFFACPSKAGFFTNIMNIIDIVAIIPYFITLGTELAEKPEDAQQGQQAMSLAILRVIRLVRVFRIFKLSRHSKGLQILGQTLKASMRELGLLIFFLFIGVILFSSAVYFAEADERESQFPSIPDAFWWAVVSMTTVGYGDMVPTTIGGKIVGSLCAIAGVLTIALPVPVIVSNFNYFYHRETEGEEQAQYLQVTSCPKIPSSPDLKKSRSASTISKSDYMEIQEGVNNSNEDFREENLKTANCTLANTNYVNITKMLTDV",
  "assay": "patch-clamp electrophysiology",
  "data": [
    {"binder": "TFINHKCKSSSECLPACKAAIGRASGKCINSTCKCYY", "note": "[Cm39]", "values": [
      {"measurement": "Kd", "result": 65, "unit": "nM"}
    ]}
  ]
}
